# Measurements reported in the supplement of paper PMC12042874.
# ± gives the uncertainty stated by the source.
# Assay: amyloid nucleation score (Sup35N fusion, yeast selection) (log enrichment); library NNK1; higher = more nucleation; inactive = no reads after selection
# Method in brief: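 Random libraries were run with three technical output replicates. In each, psi-negative yeast expressing Sup35N fused to peptides of 20 random codons were induced 24 hours with 100 μM copper sulfate and grown 7 days at 30°C on medium lacking adenine and uracil, and input and output plasmid inserts were Illumina-sequenced. The nucleation score is the DiMSum log enrichment of output over input reads, centred on the mode score of non-aggregating sequences, and sequences under 100 input reads were excluded.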
row,Substance,amyloid nucleation score
1,GVGIFAIYWFTMPHVRPRVI,-1.13 ± 1
2,DIRIPMHLSIDLQVVLSLRY,0.172 ± 0.63
3,THFVLE,0.53 ± 0.28
4,ISICTMLLFSPVS,-0.894 ± 0.83
5,WAIFLVR,-2.31 ± 2.4
6,LIWSMEALYFMDLLGG,inactive
7,ALCYPLMDSRSSRSYVQTRR,2.61 ± 0.12
8,MSSSKGVVYDCFCSMWWLLP,0.018 ± 0.73
9,TIRARMVCLNCQMVR,3.54 ± 0.079
10,GNVYVKISVTVFADDYVLRV,3.81 ± 0.11
11,GVVACLFFWVRAFFYR,inactive
12,KRTHSTLHK,0.36 ± 0.38
13,TSLCMIHYVK,-0.069 ± 1.1
14,QCVRLDVTT,-2.14 ± 2.1
15,CFFILW,-0.066 ± 0.55
16,NGCLITSWDYCSCRAVYQLT,-0.602 ± 0.39
17,TKVGFFQRLGYEQVCNCKML,0.244 ± 0.49
18,DNLLEAASNNIIEYVCSPLE,0.501 ± 0.44
19,MNGYLRLHSDTNCSCC,inactive
20,TLFPVRNTMMFLESYS,-0.742 ± 0.41
21,VGHYGRETHLCSWCQIANGA,inactive
22,VCTCIFRFQFLILCVRVCEL,0.293 ± 0.85
23,NHSGSFKCGRIVSRYDD,-1.37 ± 0.95
24,GVRETHLPSMLRRTALRFTF,0.026 ± 0.36
25,FMVACWHSKWAYDNCYYNSS,inactive

row,Substance,amyloid nucleation score
1,PIDGTFL,-0.69 ± 0.62
2,YNPIVWSTAY,inactive
3,GVRMLGFVRV,0.261 ± 0.2
4,FFNRTKTHEVDADGALSTL,0.508 ± 0.88
5,CISAVPCM,0.497 ± 0.43
6,RIRIFNKKSGMGQRWILVEG,-0.006 ± 0.73
7,VWVHKAY,-0.021 ± 1.2
8,VEFYRYFGWCPNYLPQHQWL,-0.148 ± 0.56
9,QSFSSSMHHDHDNWDQCCES,0.522 ± 0.59
10,PSLASCSRL,0.28 ± 0.41
11,GIVGGDQYMLFNLYVGFSYP,1.45 ± 0.15
12,TSHAVFNTVINLVVFVDQHC,8.111 ± 0.055
13,YPCHSREMHYCREWVRDLST,-0.396 ± 0.62
14,VMFYSLHFCGVEDFFTGAER,0.834 ± 0.57
15,VTSWQIDKLPWASANSLFWL,0.334 ± 0.27
16,LTFNAMMMMIMLIMSAYIVS,1.89 ± 0.46
17,CIGNCYGWLSDLSWWSCPSS,0.676 ± 0.3
18,WRLRCLRELV,-0.542 ± 0.65
19,MSYCFF,0.022 ± 0.55
20,VSGAKLAFN,-0.46 ± 1.6
21,YKSLLGRAVMFKRHQPGPRA,0.248 ± 0.39
22,NYTNCTSTDRI,0.907 ± 0.56
23,YLWVIATLQFEV,-0.783 ± 0.63
24,AFDIVDRSRYILY,0.58 ± 0.6
25,SEHRMASRHVNPRPGGKDCR,-1.54 ± 2.7

row,Substance,amyloid nucleation score
1,FLNYVMDVLGGRIRDVWWFT,0.829 ± 0.66
2,GQDSGSSNVFSSCICNLHVF,7.715 ± 0.046
3,KIVSEFCL,0.36 ± 0.36
4,IEGMCGDMVMTYYIFLDSCG,1.07 ± 0.36
5,LLRFTCSILLRA,0.437 ± 0.79
6,CTIRYWF,1.5 ± 0.42
7,RGDLTPDARSYGPCSIHRWR,inactive
8,VWARVMNAYFDTSH,-1.22 ± 2.4
9,TFTCMPLLWLIFS,6.029 ± 0.057
10,GCYWIMAMGQILRRLEDAAG,1.14 ± 0.72
11,CCGVDAFSSRESR,1.55 ± 0.41
12,SSGYYFVQWTCYLRK,-1.27 ± 2.7
13,MRTRWSIIMDVRYDNSV,1.55 ± 0.21
14,PDRGEKLRRLNVWNKPCFGT,0.829 ± 0.93
15,GSRSLLQR,-1.06 ± 1.2
16,CYIYPVFLGFMYCREEGNMG,1.93 ± 0.37
17,NPGEWYNSYRSNGEGMRLYE,-0.288 ± 0.88
18,LFMGVRTKVNGSAVI,0.183 ± 0.17
19,MGQGLCPRSYMFLVCELIVF,0.818 ± 0.43
20,LGQLNFLMWYPKYECRIYMG,6.656 ± 0.058
21,RYTFQFNYV,0.224 ± 0.38
22,NRNTRLMWNDTVWGIRAARY,-0.279 ± 0.85
23,KNDNAYCGWSWLLLTDSVHF,-0.836 ± 0.42
24,GQNLGRSRLGNVYRGPCGNC,-0.095 ± 1.1
25,LDYLTTRKANVHRGCVALML,-1.27 ± 0.78

row,Substance,amyloid nucleation score
1,GVKFNSDMSCQFRRVLVEIA,-0.057 ± 1.7
2,MPTRKTMDGYASIEF,-0.486 ± 0.41
3,NRYPTLFWCVRNRVWECLRV,0.392 ± 0.46
4,FSPFLIMVSESPFHPIPELR,-0.991 ± 2.4
5,GGRSS,-0.058 ± 0.58
6,NVGVMGFISASVWLFCWGIF,-0.783 ± 0.33
7,LCNPQYM,1.38 ± 0.69
8,VHSVLKWLRWDSIPCIVLIR,-0.487 ± 0.32
9,FDFTNGRISFAFCNNSCCPY,2.46 ± 0.34
10,LLMEFI,1.46 ± 0.84
11,CHLIL,0.115 ± 0.34
12,SFIPKVGCKKEPARRASGNV,0.413 ± 1.4
13,RMMSGRWFMMWWLLVANRGV,inactive
14,SLNFPLLSQPAPIFVLSDKG,0.974 ± 0.76
15,SSSGFNIFRLLV,-0.325 ± 0.25
16,SWNLGADIAMDDHVESV,0.601 ± 0.39
17,IFCGRIKQCSLASHCKLEWG,0.69 ± 0.41
18,RSNTRCAFKNFIFSMTCAFK,0.823 ± 0.5
19,LFFSYMQLVTNSTCTYLRVF,1.24 ± 0.74
20,HISLHYYKICNRFDLYNKDS,7.107 ± 0.065
21,DDNGPTYR,inactive
22,MVRCNYRRRVGGDT,0.905 ± 0.69
23,SHTYG,0.06 ± 0.59
24,LQNSDVFHADLQIISPTFCP,-0.826 ± 1.8
25,FIVKKFIKSNRLVLMRGSPL,0.669 ± 0.49

row,Substance,amyloid nucleation score
1,SLFHLNFTIRWVDHAADSLV,1.98 ± 0.56
2,AYCFNSTGLSRFCSKYLWSN,-0.478 ± 0.45
3,LIIVRSMSNDGSIVGSQAWP,8.152 ± 0.073
4,QAFISFVVSFRWHLTCRS,1.18 ± 0.64
5,SLRMLCRLPSRKDRSWTDML,0.6 ± 0.32
6,HILSHFVSCSRYL,-0.09 ± 1.4
7,MLPQSSSRQLRVGCASLCNM,-0.148 ± 0.6
8,GSNGMRGLRWGL,-0.485 ± 0.31
9,HFYFIYCSQIQVFKQV,7.422 ± 0.065
10,TQIAESYLVQANNSAEATAA,-0.32 ± 1.4
11,VINCNWKFSFFFALVNEGGV,6.554 ± 0.048
12,SMSCVVHRGSSASCWMFYRN,0.784 ± 0.37
13,GLWHAC,inactive
14,SIYDARRMVRVHTFHEGLL,-0.577 ± 1.4
15,SSDFY,-1.46 ± 1.3
16,LRNAMVMSLYN,-0.423 ± 0.72
17,NRYQRYVPTIEMEPNSSYGN,inactive
18,TEGTYDNSSCHSDALGECLW,0.281 ± 0.33
19,AATGRTVCESREWGKVLAVC,-0.459 ± 0.38
20,YHSKLFVGGYWLYREDGREY,0.812 ± 0.24
21,GLDCVRGNQWVNQGVL,2.32 ± 0.15
22,GNYTS,-0.894 ± 0.59
23,CENVIEFNENVKG,0.503 ± 0.29
24,TYGMYFLFSYVSVCQY,2.3 ± 0.13
25,TVRCSMGYILYRWVHSRLGR,1.4 ± 0.48

row,Substance,amyloid nucleation score
1,ITAWWQVSL,0.565 ± 0.36
2,EGHWGFWPIGSFTCTSFLVY,0.86 ± 0.58
3,DYDGWQLPMCNNITMTWKVC,2.7 ± 0.12
4,LTGYTAS,0.295 ± 0.37
5,SSKCDLIDCSSD,inactive
6,SWFNISAVLENMGRYS,0.26 ± 0.44
7,LYNLGHDSVGDLSFFCLRGW,-0.427 ± 0.36
8,IKHLKNMGFCVRESLYSDRF,-0.042 ± 0.59
9,KYMFRARCKRMTFGYPG,-1.58 ± 1.4
10,ADNFIGVVYTMLVRRYMPNS,-1.65 ± 1.2
11,LLYFRVRSMFKGLRNETYMA,0.411 ± 0.27
12,ELKSPCNVSPIWSRSRQTST,0.216 ± 0.68
13,MWGFWTFFDGLAYPFVMHKT,0.054 ± 0.53
14,CQSVFRGTIHS,-0.235 ± 0.55
15,AGVAPYWVPTSEQDQLRRGT,-0.721 ± 1.9
16,YGNKTYFAPR,0.557 ± 0.51
17,NMGTVMYGVIQACRAHVNVV,0.22 ± 0.45
18,GLYIFYLSNWLFHPRF,0.339 ± 0.43
19,HNMHFSPWIKCNSVYEFSGR,1.56 ± 0.73
20,KLLVLLNN,inactive
21,CECRRANVADPFRVSCWAKF,0.156 ± 1.2
22,SNFGCFYCLLIPRNKKLGLG,1.67 ± 0.47
23,DMTNAVCTRLNFIRLSTLMK,0.041 ± 0.32
24,QLSTISFLQWSGSACSSTVH,-0.49 ± 0.74
25,IKRTCYPLVRGVPNQIRNLK,-0.091 ± 0.68

row,Substance,amyloid nucleation score
1,LNVCSRTPWYKSQSFVDRCV,-1.69 ± 2.4
2,SRGFDHITFF,-0.677 ± 1.2
3,LYGFANYFRFMRYWTRNVVP,0.124 ± 1.2
4,LAILMMCLLWTDLAKVLCPH,-0.015 ± 0.69
5,HFGAYLVVM,-0.299 ± 0.35
6,NVFCPVHENVSRLLQRHTRL,1.1 ± 0.53
7,SSLVVAWF,0.219 ± 0.21
8,NCRGKREMGRKSSRSLVHGW,-0.039 ± 0.49
9,WQFYTVL,-0.246 ± 0.31
10,LKYANLSMRYPWVKKYCKEN,-0.301 ± 0.51
11,CGKPPFGNYWGTWCKIVVTL,0.746 ± 0.62
12,NSVISMAPYLFTCIENVKSK,0.315 ± 0.42
13,FLMDNDKIHYGYISSVCTSY,inactive
14,NGVLYFD,0.371 ± 0.57
15,FYVLATFSNC,0.618 ± 0.4
16,ISTCLRTSFYVDVGNMSFCN,0.206 ± 0.44
17,VRTLLWSS,-1.55 ± 2.4
18,VAWSPLRSSKPGTLSTVGDT,0.83 ± 1.1
19,SMRRAI,-0.263 ± 1.4
20,SWSSKRNVWEHIVGESYEYF,inactive
21,AKKWNSSMAKCNFNCLKSVW,-2.05 ± 2.7
22,FSTLICIGVE,-0.35 ± 0.65
23,LEHHCAHCIGEVTINIKRFP,0.306 ± 0.41
24,GQQLCVIFYSTCDSYKMLSD,3.26 ± 0.089
